Assay results as given in paper PMC11153135.

Biological target: purified human SLAMF4 (hSLAMF4) protein, recombinant (human) (UniProt Q9BZW8)
Experiment: MST; Monolith NT.115; GST–lytC_22 in a gradient (11 to 0.34375 μg μl^-1) mixed 1:1 (vol/vol) with 0.2 μg μl^-1 fluorescently pre-labelled recombinant Slamf4, 30 min at room temperature; medium MST power; apparent

Chain of UniProt Q9BZW8 (Q9BZW8 22-229): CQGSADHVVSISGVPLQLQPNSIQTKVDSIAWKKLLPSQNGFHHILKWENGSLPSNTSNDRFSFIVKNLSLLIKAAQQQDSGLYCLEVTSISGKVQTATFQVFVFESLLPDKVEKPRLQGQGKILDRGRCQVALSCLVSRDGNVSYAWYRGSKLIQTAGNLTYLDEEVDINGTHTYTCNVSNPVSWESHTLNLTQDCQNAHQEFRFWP

GST–lytC_22 (recombinant glutathione S-transferase-tagged N-acetylmuramoyl-L-alanine amidase lytC_22 of P. anaerobius) (natural protein)
Kd: 40.1 nM
